From paper PMC9314367

Molecular target: Rubisco large subunit CbbL of Cyanobium sp. PCC 7001 (Cyanobium sp. PCC 7001)
Experiment: cryo-EM structure; cryo-electron tomography with subtomogram averaging (emClarity) of Rubisco inside isolated native Cyanobium α-carboxysomes in TEMB buffer; 3.8 Å; all Rubiscos and the three concentric layers averaged separately

Rubisco large subunit CbbL of Cyanobium sp. PCC 7001 (natural protein)
stoichiometry N: 8
